The text below walks through data of publication PMC11073571, “Functional and in silico analysis of ATP8A2 and other P4-ATPase variants associated with human genetic diseases” (Disease Models & Mechanisms, 2024).

Where a chain is given by its changes, count along the chain named. In names and notes the source's numbering stands.

Substrate in the data set: CCCCCCCC/C=C\CCCCCCCC(=O)OC[C@H](COP(=O)(O)OC[C@H](N)C(=O)O)OC(=O)CCCCCCC/C=C\CCCCCCCC
As to the kind of experiment: colorimetric phosphate-release ATPase assay, Michaelis-Menten fit. The data set is classed as biochemical, Homo sapiens. The settings on record: PS activation constant (not association constant), 5 mM ATP, DOPC:DOPS mixtures at 2.5 mg/ml total lipid, 10 mM CHAPS, 12.5 mM MgCl2, pH 7.5, 37°C.

B1: ATP8A2-CDC50A complex (Homo sapiens) (protein)
chain: MLNGAGLDKALKMSLPRRSRIRSSVGPVRSSLGYKKAEDEMSRATSVGDQLEAPARTIYLNQPHLNKFRDNQISTAKYSVLTFLPRFLYEQIRRAANAFFLFIALLQQIPDVSPTGRYTTLVPLIIILTIAGIKEIVEDFKRHKADNAVNKKKTIVLRNGMWHTIMWKEVAVGDIVKVVNGQYLPADVVLLSSSEPQAMCYVETANLDGETNLKIRQGLSHTADMQTREVLMKLSGTIECEGPNRHLYDFTGNLNLDGKSLVALGPDQILLRGTQLRNTQWVFGIVVYTGHDTKLMQNSTKAPLKRSNVEKVTNVQILVLFGILLVMALVSSAGALYWNRSHGEKNWYIKKMDTTSDNFGYNLLTFIILYNNLIPISLLVTLEVVKYTQALFINWDTDMYYIGNDTPAMARTSNLNEELGQVKYLFSDKTGTLTCNIMNFKKCSIAGVTYGHFPELAREPSSDDFCRMPPPCSDSCDFDDPRLLKNIEDRHPTAPCIQEFLTLLAVCHTVVPEKDGDNIIYQASSPDEAALVKGAKKLGFVFTARTPFSVIIEAMGQEQTFGILNVLEFSSDRKRMSVIVRTPSGRLRLYCKGADNVIFERLSKDSKYMEETLCHLEYFATEGLRTLCVAYADLSENEYEEWLKVYQEASTILKDRAQRLEECYEIIEKNLLLLGATAIEDRLQAGVPETIATLLKAEIKIWVLTGDKQETAINIGYSCRLVSQNMALILLKEDSLDATRAAITQHCTDLGNLLGKENDVALIIDGHTLKYALSFEVRRSFLDLALSCKAVICCRVSPLQKSEIVDVVKKRVKAITLAIGDGANDVGMIQTAHVGVGISGNEGMQATNNSDYAIAQFSYLEKLLLVHGAWSYNRVTKCILYCFYKNVVLYIIELWFAFVNGFSGQILFERWCIGLYNVIFTALPPFTLGIFERSCTQESMLRFPQLYKITQNGEGFNTKVFWGHCINALVHSLILFWFPMKALEHDTVLTSGHATDYLFVGNIVYTYVVVTVCLKAGLETTAWTKFSHLAVWGSMLTWLVFFGIYSTIWPTIPIAPDMRGQATMVLSSAHFWLGLFLVPTACLIEDVAWRAAKHTCKKTLLEEVQELETKSRVLGKAVLRDSNGKRLNERDRLIKRLGRKTPPTLFRGSSLQQGVPHGYAFSQEEHGAVSQEEVIRAYDTTKKKSRKK
notes: heterodimer; with Cell cycle control protein 50A
Regarding B1, the K0.5 stood at 14.3 ± 4.3 µM.

B2: ATP8A2-CDC50A complex (Homo sapiens; E459Q) (protein)
chain: B1 chain with E459Q
notes: as for B1
On to B2, for which the K0.5 worked out at 8.4 ± 3.1 µM.

B3: ATP8A2-CDC50A complex (Homo sapiens; E459D) (protein)
chain: B1 chain with E459D
notes: as for B1
Take B3: the K0.5 is 19.3 ± 4.2 µM.
